Key:
[1] = biological target: the molecule itself; assay: NMR titration; CC-PRY/SPRY with pre-let-7 RNA added; domain-domain interaction within the construct; 1H,15N-HSQC
TRIM25 CC-PRY/SPRY [2] = biological target: T1, TRIM25 CC-PRY/SPRY (UniProt Q14258 189-630); assay: filter binding; ITC and filter binding: 20 mM MES pH 6.5, 75 mM NaCl, 0.5 mM TCEP (ITC 20 C, filter binding on ice); NMR: 20 mM Na phosphate pH 6.5, 150 mM NaCl, 2 mM TCEP, 293 K; conditions: protein: recombinant, tags: His-Trx (removed), chain copies: 2, hairpin
TRIM25 PRY/SPRY [3] = biological target: T2, TRIM25 PRY/SPRY (UniProt Q14258 439-630); assay: ITC; ITC and filter binding: 20 mM MES pH 6.5, 75 mM NaCl, 0.5 mM TCEP (ITC 20 C, filter binding on ice); NMR: 20 mM Na phosphate pH 6.5, 150 mM NaCl, 2 mM TCEP, 293 K; conditions: protein: recombinant; tags: His-Trx (removed); single strand
TRIM25 CC-PRY/SPRY [4] = biological target: T1, TRIM25 CC-PRY/SPRY; assay: as above; conditions: protein: recombinant; tags: His-Trx (removed); chain copies: 2; single strand
[5] = biological target: T3, TRIM25 CC-PRY/SPRY penta-mutant (UniProt Q14258 189-630, K283A;K285A;H505E;K508E;K602E); assay: as above; conditions: protein: recombinant; tags: His-Trx (removed); chain copies: 2; hairpin
Target sequence in this assay (Q14258 189-630 K283A/K285A/H505E/K508E/K602E): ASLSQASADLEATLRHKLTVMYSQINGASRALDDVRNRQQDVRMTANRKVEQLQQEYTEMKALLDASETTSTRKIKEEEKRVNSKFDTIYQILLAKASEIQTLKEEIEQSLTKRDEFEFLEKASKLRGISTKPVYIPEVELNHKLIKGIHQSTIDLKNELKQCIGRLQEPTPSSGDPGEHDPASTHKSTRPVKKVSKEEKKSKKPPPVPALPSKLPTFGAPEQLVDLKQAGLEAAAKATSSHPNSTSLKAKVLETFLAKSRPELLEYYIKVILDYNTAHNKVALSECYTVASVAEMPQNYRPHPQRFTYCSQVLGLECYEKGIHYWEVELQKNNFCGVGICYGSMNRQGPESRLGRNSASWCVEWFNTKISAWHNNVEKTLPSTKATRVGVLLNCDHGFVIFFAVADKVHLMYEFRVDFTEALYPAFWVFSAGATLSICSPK

TRIM25 CC-PRY/SPRY [6] = biological target: T1, TRIM25 CC-PRY/SPRY; assay: ITC; first of two fitted sites (second 106 nM); ITC and filter binding: 20 mM MES pH 6.5, 75 mM NaCl, 0.5 mM TCEP (ITC 20 C, filter binding on ice); NMR: 20 mM Na phosphate pH 6.5, 150 mM NaCl, 2 mM TCEP, 293 K; conditions: protein: recombinant; tags: His-Trx (removed); chain copies: 2; hairpin
TRIM25 CC-PRY/SPRY [7] = biological target: T1, TRIM25 CC-PRY/SPRY; assay: ITC; second fitted site, N 0.08; ITC and filter binding: 20 mM MES pH 6.5, 75 mM NaCl, 0.5 mM TCEP (ITC 20 C, filter binding on ice); NMR: 20 mM Na phosphate pH 6.5, 150 mM NaCl, 2 mM TCEP, 293 K; conditions: protein: recombinant; tags: His-Trx (removed); chain copies: 2; hairpin
TRIM25 CC-PRY/SPRY [8] = biological target: T1, TRIM25 CC-PRY/SPRY; assay: ITC; second fitted site, N 0.10; ITC and filter binding: 20 mM MES pH 6.5, 75 mM NaCl, 0.5 mM TCEP (ITC 20 C, filter binding on ice); NMR: 20 mM Na phosphate pH 6.5, 150 mM NaCl, 2 mM TCEP, 293 K; conditions: protein: recombinant; tags: His-Trx (removed); chain copies: 2; hairpin
[9] = biological target: T3, TRIM25 CC-PRY/SPRY penta-mutant; assay: ITC; no binding detected; ITC and filter binding: 20 mM MES pH 6.5, 75 mM NaCl, 0.5 mM TCEP (ITC 20 C, filter binding on ice); NMR: 20 mM Na phosphate pH 6.5, 150 mM NaCl, 2 mM TCEP, 293 K; conditions: protein: recombinant; tags: His-Trx (removed); chain copies: 2; hairpin
TRIM25 CC-PRY/SPRY [10] = biological target: T1, TRIM25 CC-PRY/SPRY; assay: ITC; first of two fitted sites; ITC and filter binding: 20 mM MES pH 6.5, 75 mM NaCl, 0.5 mM TCEP (ITC 20 C, filter binding on ice); NMR: 20 mM Na phosphate pH 6.5, 150 mM NaCl, 2 mM TCEP, 293 K; conditions: protein: recombinant; tags: His-Trx (removed); chain copies: 2; hairpin
TRIM25 PRY/SPRY [11] = biological target: T2, TRIM25 PRY/SPRY; assay: NMR; CSPs at site 2 only; ITC and filter binding: 20 mM MES pH 6.5, 75 mM NaCl, 0.5 mM TCEP (ITC 20 C, filter binding on ice); NMR: 20 mM Na phosphate pH 6.5, 150 mM NaCl, 2 mM TCEP, 293 K; conditions: protein: recombinant; tags: His-Trx (removed); chain copies: 3; hairpin

B1: TRIM25 CC-PRY/SPRY (aa 189-630) (domain or fragment, human, UniProt Q14258 189-630, looked up)
chain: ASLSQASADLEATLRHKLTVMYSQINGASRALDDVRNRQQDVRMTANRKVEQLQQEYTEMKALLDASETTSTRKIKEEEKRVNSKFDTIYQILLKKKSEIQTLKEEIEQSLTKRDEFEFLEKASKLRGISTKPVYIPEVELNHKLIKGIHQSTIDLKNELKQCIGRLQEPTPSSGDPGEHDPASTHKSTRPVKKVSKEEKKSKKPPPVPALPSKLPTFGAPEQLVDLKQAGLEAAAKATSSHPNSTSLKAKVLETFLAKSRPELLEYYIKVILDYNTAHNKVALSECYTVASVAEMPQNYRPHPQRFTYCSQVLGLHCYKKGIHYWEVELQKNNFCGVGICYGSMNRQGPESRLGRNSASWCVEWFNTKISAWHNNVEKTLPSTKATRVGVLLNCDHGFVIFFAVADKVHLMYKFRVDFTEALYPAFWVFSAGATLSICSPK
notes: TRIM25 coiled-coil (CC), L2 linker and PRY/SPRY domain, aa 189-630; also called TRIM25 189-630
- binding result [1]: binds

Binder: GUGUAAAAUGAUGGAAUAUAUACUAUCGUUUUACGC (structured_RNA) [roX2 stem-loop (SL7 in text, SL6 in Table 2)]
- Kd (TRIM25 CC-PRY/SPRY [2]; label: 5' 32P): 18.1 ± 2.2 nM

Binder: UAAAAGGAGAU (ssRNA) [pre-let-7 loop]
- Kd (TRIM25 PRY/SPRY [3]): 42000 ± 53000 nM
- Kd (TRIM25 CC-PRY/SPRY [4]): 4100 ± 1900 nM

Binder: GCAGGUCGGAUUAAGCCAUAGUACGGGAAAAACUAUGCUACCUG (structured_RNA) [DENV-SL]
- Kd [5]: 363 ± 84 nM
- Kd (TRIM25 CC-PRY/SPRY [6]): 15.2 ± 3 nM
- Kd (TRIM25 CC-PRY/SPRY [2]): 1.63 ± 0.38 nM
- Kd (TRIM25 CC-PRY/SPRY [7]): 106 ± 35 nM

Binder: UUUUAUCUGAGUUGGAGGUGAAG (structured_RNA) [Lnczc3h7a-SL]
- Kd (TRIM25 CC-PRY/SPRY [8]): 8900 ± 4500 nM
- binding result [9]: no binding
- Kd (TRIM25 CC-PRY/SPRY [10]): 486 ± 77 nM

Binder: GUAUAGUUCAACUAUAC (structured_RNA) [pre-let-7 stem (stem-fusion)]
- binding result (TRIM25 PRY/SPRY [11]): binds

Source: article doi:10.1101/2020.05.04.070177, “Mechanistic insights into RNA binding and RNA-regulated RIG-I ubiquitination by TRIM25” (bioRxiv, 2020)
